The values below come from paper PMC6525511.

The experiment addresses RIG-5 (construct not stated; SPR) (C. elegans). The experiment can be described thus: SPR. (In SPR one partner is held on a chip, and binding of the other changes the refractive index at the surface.)

For the substance “ZIG-8 (purified; construct not stated; SV-AUC and SPR) (from UniProt G5ED00 22-251) (natural protein)”, the Kd (usually the constant that tells how readily two partners part at equilibrium) is 10 µM.
